According to US20250002583A1 (PERSONGEN BIOTHERAPEUTICS SUZHOU, published 2025):

T1: B7-H3 (CD276) Protein, Human, Recombinant (His Tag) (Human, UniProt Q5ZPR3 29-461, limits assumed)
T1 construct: Bought protein; also called CD276-His recombinant protein; CD276 recombinant protein; not shown: His tag
T1 sequence (looked up): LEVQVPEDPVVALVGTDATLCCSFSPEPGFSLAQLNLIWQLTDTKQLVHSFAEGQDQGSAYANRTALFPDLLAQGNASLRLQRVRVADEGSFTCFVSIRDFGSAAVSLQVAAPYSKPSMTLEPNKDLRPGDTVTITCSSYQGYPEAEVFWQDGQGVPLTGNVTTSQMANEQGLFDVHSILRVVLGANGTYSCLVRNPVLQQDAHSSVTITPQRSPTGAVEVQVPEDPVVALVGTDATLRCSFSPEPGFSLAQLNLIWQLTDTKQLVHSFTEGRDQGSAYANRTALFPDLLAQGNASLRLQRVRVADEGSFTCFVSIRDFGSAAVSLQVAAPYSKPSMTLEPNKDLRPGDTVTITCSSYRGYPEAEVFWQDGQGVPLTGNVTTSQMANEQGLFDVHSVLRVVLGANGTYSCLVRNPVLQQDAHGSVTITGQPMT


Each binder was assayed against T1, B7-H3 (CD276) Protein, Human, … (assay: SPR (BiaCore T200), CD276 recombinant protein amine-coupled on CM5 chip, antibody as analyte).

Kd	koff	kon	Binder
70.8 nM	0.00258 s⁻¹	36400 M⁻¹ s⁻¹	CD276 Chimeric (antibody, V domains shown, Murine variable regions cloned into pcDNA3.1-IgG1Fc (heavy) and pcDNA3.1-IgKc (light); also called human-mouse chimeric antibody; human-murine chimeric antibody) VH: EVTLVESGGGLVKPGGSLKLSCAASGFTFSTYVMSWVRQTPEKRLEWVASILSGGTSFYADNVKGRFTISRENARNILYLQMSSLKSEDTAMYYCVRRYGHDHYYAMDYWGQGTSVTVSS VL: QIVLTQSPANMSASLGERVTMTCAASSSVSSSYLHWYQQKPGSSPKLWIYSTSNLASGVPGRFNGSGSGTSYSLTISSMEAEDAATYYCHQYHRSPWTFGGGTKLEIK
114 nM	0.00282 s⁻¹	24800 M⁻¹ s⁻¹	CD276T1H1-T1L1 (antibody, V domains shown, Heavy chain variable region cloned into pcDNA3.1-IgG1Fc and light chain variable region into pcDNA3.1-IgKc (IgG1, kappa); also called humanized CD276 antibody (CD276T1H1-T1L1); CD276 humanized antibody) VH: EVQLVESGGGLIQPGGSLRLSCAASGFTFSTYVMSWVRQAPGKGLEWVSSILSGGTSFYADNVKGRFTISRDNSKNTLYLQMNSLRAEDTAVYYCARRYGHDHYYAMDYWGQGTLVTVSS VL: EIVLTQSPATLSLSPGERATLSCAASSSVSSSYLHWYQQKPGLAPRLLIYSTSNLASGIPDRFSGSGSGTDFTLTISRLEPEDFAVYYCQQYHRSPWTFGGGTKVEIK
72.8 nM	0.00289 s⁻¹	39700 M⁻¹ s⁻¹	CD276T2H1-T2L1 (antibody, V domains shown, Heavy chain variable region cloned into pcDNA3.1-IgG1Fc and light chain variable region into pcDNA3.1-IgKc (IgG1, kappa)) VH: EVQLVESGGGVVRPGGSLRLSCAASGFTFSTYVMSWVRQAPGKGLEWVSSILSGGTSFYADNVKGRFTISRDNAKNSLYLQMNSLRAEDTALYHCARRYGHDHYYAMDYWGQGTTVTVSS VL: DIQMTQSPSTLSASVGDRVTITCAASSSVSSSYLHWYQQKPGKAPKLLIYSTSNLASGVPSRFSGSGSGTEFTLTISSLQPDDFATYYCQQYHRSPWTFGQGTKLEIK
